Data taken from doi:10.1101/2025.09.30.679617.

Molecular target: PfCSP junctional peptide 21 (Plasmodium falciparum) (UniProt Q7K740)
Test: BLI

With CIS43 mAb the Kd was 21 nM.
